Experimental data from publication PMC9482650, “Quantitative fragmentomics allow affinity mapping of interactomes” (Nature Communications, 2022).

T1: APBA1_2, Q02410
T1 sequence (Q02410 742-832, limits assumed, looked up): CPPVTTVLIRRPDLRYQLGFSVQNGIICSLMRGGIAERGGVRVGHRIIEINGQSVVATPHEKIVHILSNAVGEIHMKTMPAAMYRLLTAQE


Target: T1, APBA1_2, Q02410
Assay: holdup assay
Parameters: key: below the threshold = too weak to quantify, mostly under pKd 3.1 to 4
Conditions: plain residues with an end cap or a label only (N-terminal biotin on a linker: ado-ado)

Binder | pKd
GDSSRKEYFI [GYPC, P04921] | 3.73
SRPHTNETSL [MCC, P23508] | 3.59
GSQSQVETEA [FKBP4, Q02790] | below the threshold
VKQYADVEGF [HNRNPK, P61978;P61978-2] | below the threshold
ATKDKKITTV [EXOC4, Q96A65] | 3.82
FHSIKQSTAV [CRHR1, P34998] | 4.15
